Positions count from the first letter of the chain named. Numbers in names are those of the source. Values belong to the binder of their own block, whether it stands above or below them.
Target: DPP9, short isoform (DPP9S), co-expressed with CARD8 for cryo-EM (UniProt Q86TI2-1 1-863)
Test: cryo-EM structure

Chain of DPP9, short isoform (DPP9S), co-expressed with CARD8 for cryo-EM (Q86TI2 whole entry, canonical isoform): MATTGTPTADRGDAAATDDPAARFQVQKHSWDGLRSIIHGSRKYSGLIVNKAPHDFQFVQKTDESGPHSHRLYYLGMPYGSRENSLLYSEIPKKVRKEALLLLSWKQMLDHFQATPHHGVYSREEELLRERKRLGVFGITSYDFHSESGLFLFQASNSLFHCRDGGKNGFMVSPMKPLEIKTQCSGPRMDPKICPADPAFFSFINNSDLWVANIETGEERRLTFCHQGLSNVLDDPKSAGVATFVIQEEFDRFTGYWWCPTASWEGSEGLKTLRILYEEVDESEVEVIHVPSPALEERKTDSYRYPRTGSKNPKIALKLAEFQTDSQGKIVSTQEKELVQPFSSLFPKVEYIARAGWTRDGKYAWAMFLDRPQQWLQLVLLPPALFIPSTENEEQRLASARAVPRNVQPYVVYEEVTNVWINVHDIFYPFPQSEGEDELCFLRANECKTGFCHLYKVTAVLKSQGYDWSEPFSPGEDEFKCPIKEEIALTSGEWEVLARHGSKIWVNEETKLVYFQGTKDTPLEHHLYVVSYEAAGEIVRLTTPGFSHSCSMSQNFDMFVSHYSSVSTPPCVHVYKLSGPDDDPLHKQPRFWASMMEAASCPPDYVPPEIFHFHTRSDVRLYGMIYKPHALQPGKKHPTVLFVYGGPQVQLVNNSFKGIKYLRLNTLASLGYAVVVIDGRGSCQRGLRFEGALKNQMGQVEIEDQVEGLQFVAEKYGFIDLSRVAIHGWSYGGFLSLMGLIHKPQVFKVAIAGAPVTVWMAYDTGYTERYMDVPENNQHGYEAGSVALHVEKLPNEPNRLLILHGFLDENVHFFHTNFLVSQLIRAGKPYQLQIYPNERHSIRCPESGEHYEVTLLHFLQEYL

- binding result: binds
B1: Full-length CARD8 (T60 isoform), molecule A of the CARD8-DPP9 ternary complex (natural protein, human, UniProt Q9Y2G2-5 1-537, looked up)
chain: MEKKECPEKSSSSEEELPRRDSGSSRNIDASKLIRLQGSRKLLVDNSIRELQYTKTGIFFQAEACVTNDTVYRELPCVSETLCDISHFFQEDDETEAEPLLFRAVPECQLSGGDIPSVSEEQESSEGQDSGDICSEENQIVSSYASKVCFEIEEDYKNRQFLGPEGNVDVELIDKSTNRYSVWFPTAGWYLWSATGLGFLVRDEVTVTIAFGSWSQHLALDLQHHEQWLVGGPLFDVTAEPEEAVAEIHLPHFISLQAGEVDVSWFLVAHFKNEGMVLEHPARVEPFYAVLESPSFSLMGILLRIASGTRLSIPITSNTLIYYHPHPEDIKFHLYLVPSDALLTKAIDDEEDRFHGVRLQTSPPMEPLNFGSSYIVSNSANLKVMPKELKLSYRSPGEIQHFSKFYAGQMKEPIQLEITEKRHGTLVWDTEVKPVDLQLVAASAPPPFSGAAFVKENHRQLQARMGDLKGVLDDLQDNEVLTENEKELVEQEKTRQSKNEALLSMVEKKGDLALDVLFRSISERDPYLVSYLRQQNL

- binding result: binds
B2: CARD8-S297A (autoproteolytic-deficient), full length, for cryo-EM (natural protein, human, UniProt Q9Y2G2-5 1-537, looked up)
chain: B1 chain with S297A

Reference: article PMC8423358 (Immunity, 2021)
